According to patent publication US20240092867A1 (UNIVERSITY OF CHICAGO, published 2024):

Assays:
[1] = biological target: T1, recombinant human BMP-2 (human, UniProt P12643 283-396); assay: ELISA, rhBMP-2 coated 50 nM
T1 construct: also called rhBMP-2
Description: ELISA plates (NUNC MaxiSorp) were coated with 50 nM of recombinant human BMP-2 (CHO produced, R&D Systems, Minneapolis MN, USA) overnight at room temperature.

[2] = biological target: T2, bovine type I collagen (bovine, UniProt P02453 178-1191; P02465 89-1102); assay: ELISA on coated bovine type I collagen (10 µg/mL), FabCol titrated, HRP-anti-human Fab [panel C]
T2 construct: PureCol, Advanced BioMatrix; coated on the plate; also called collagen I; PureCol
T2 sequence (P02453 178-1191, chain 1 of 2): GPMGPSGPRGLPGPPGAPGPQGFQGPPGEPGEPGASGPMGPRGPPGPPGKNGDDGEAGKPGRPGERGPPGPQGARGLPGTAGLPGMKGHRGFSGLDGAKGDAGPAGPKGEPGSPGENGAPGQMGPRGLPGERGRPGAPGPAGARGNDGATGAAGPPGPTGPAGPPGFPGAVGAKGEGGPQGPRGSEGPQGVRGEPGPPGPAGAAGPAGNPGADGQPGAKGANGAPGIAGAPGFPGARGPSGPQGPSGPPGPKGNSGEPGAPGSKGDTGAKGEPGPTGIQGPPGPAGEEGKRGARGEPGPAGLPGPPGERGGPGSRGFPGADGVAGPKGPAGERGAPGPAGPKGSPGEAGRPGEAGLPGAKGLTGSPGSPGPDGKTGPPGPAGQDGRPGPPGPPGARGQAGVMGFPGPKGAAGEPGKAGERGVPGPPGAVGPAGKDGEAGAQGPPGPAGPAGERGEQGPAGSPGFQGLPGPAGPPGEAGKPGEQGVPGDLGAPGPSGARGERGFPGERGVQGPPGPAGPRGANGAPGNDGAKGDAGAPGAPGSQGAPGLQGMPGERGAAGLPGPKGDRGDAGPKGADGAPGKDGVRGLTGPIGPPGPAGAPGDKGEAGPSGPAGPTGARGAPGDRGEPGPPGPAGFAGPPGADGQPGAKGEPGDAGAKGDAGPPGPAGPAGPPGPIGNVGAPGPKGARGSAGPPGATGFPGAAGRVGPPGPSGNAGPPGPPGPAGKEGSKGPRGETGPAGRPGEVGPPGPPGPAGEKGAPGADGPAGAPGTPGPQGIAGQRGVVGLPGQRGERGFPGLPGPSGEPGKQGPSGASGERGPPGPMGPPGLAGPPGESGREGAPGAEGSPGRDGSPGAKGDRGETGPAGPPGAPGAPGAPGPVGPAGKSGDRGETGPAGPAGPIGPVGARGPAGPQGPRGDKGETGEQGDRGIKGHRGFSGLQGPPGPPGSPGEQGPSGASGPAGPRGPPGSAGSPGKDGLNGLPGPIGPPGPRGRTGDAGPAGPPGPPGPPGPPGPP
T2 sequence (P02465 89-1102, chain 2 of 2): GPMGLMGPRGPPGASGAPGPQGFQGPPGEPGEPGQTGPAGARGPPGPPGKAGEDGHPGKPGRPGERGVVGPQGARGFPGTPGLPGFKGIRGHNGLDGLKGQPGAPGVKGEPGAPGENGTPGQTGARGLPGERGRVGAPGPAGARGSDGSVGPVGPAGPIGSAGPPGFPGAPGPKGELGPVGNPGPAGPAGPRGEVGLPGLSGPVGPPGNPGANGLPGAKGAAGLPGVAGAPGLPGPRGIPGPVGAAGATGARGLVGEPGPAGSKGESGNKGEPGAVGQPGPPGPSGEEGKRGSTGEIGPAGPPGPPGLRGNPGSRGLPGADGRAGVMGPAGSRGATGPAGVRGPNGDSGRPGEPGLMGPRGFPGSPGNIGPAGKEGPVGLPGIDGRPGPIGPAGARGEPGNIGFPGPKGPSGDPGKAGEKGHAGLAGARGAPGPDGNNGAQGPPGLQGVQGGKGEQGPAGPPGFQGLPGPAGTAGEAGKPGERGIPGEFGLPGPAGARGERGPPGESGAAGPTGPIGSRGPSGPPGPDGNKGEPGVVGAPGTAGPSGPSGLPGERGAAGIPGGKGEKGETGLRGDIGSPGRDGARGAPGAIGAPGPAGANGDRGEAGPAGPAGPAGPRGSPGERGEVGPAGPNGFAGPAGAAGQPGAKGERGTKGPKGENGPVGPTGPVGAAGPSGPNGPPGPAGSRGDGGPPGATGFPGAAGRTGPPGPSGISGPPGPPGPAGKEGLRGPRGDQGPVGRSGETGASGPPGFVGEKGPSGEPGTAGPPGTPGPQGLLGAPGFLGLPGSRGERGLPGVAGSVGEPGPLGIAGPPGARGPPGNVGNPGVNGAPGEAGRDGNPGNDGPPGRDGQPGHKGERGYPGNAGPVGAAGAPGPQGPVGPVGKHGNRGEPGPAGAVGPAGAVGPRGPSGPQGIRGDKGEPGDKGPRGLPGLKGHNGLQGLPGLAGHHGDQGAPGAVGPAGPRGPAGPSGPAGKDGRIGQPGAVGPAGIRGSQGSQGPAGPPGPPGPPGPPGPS
Description: (§1) ELISA plates (NUNC MaxiSorp, ThermoFisher Scientific) were coated overnight with 10 μg/mL of bovine type I collagen (PureCol, Advanced BioMatrix, San Diego CA, USA) at room temperature. The plate was further blocked using 2% bovine serum albumine (BSA) for 2 h at room temperature. […] The plate was washed thrice in PBST, and an horseradish peroxidase-conjugated anti-human Fab antibody (Jackson ImmunoResearch,) was used to detect bound FabCol variants. […] Absorbance at 450 nm was read using […], and corrected using the absorbance at 570 nm. Curve fits and dissociation constant KD were computed using Prism (GraphPad Software Inc., USA).

[3] = biological target: T2, bovine type I collagen; assay: ELISA on coated bovine type I collagen (10 µg/mL), FabCol titrated 0.01-30 nM, HRP-anti-human Fab [panel C]
Description: as §1

[4] = biological target: T3, mVEGF-C (mouse, UniProt P97953); assay: ELISA; growth factors coated at 100 nM, FabCol variants at 100 nM in solution, HRP-anti-human Fab [panel F]
T3 construct: also called mouse wild-type VEGF-C
T3 sequence (growth factor chain, looked up): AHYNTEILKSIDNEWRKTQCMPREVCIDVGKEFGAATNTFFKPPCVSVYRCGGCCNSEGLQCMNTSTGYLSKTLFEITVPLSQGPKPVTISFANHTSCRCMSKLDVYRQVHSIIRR

[5] = biological target: T4, placental growth factor (PlGF)-2 (human, UniProt P49763-3 19-170); assay: as above
T4 construct: mature; Purchased in mature form
T4 sequence (looked up): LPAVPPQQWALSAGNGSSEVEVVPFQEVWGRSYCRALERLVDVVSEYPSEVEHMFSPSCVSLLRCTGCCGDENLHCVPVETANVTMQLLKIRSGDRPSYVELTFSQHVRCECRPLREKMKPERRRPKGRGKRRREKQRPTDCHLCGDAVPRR

[6] = biological target: T5, placental growth factor (PlGF)-1 (human, UniProt P49763-2 19-149); assay: as above
T5 construct: mature; Purchased in mature form
T5 sequence (looked up): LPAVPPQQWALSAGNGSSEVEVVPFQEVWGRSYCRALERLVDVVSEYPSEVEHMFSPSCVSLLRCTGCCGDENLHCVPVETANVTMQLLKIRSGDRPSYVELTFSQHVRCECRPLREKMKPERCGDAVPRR

[7] = biological target: T6, platelet-derived growth factor (PDGF)-BB (human, UniProt P01127 82-190); assay: as above
T6 construct: mature; Purchased in mature form
T6 sequence (P01127 82-190): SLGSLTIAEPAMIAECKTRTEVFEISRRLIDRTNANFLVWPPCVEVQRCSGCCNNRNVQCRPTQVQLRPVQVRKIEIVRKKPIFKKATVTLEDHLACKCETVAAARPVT

[8] = biological target: T7, vascular endothelial growth factor (VEGF)-A165 (human, UniProt P15692-4 27-191); assay: as above
T7 construct: mature; Purchased in mature form, not glycosylated

[9] = biological target: T2, bovine type I collagen; assay: ELISA on coated bovine type I collagen (10 µg/mL), FabCol titrated, HRP-anti-human Fab; table headed 'Estimated KD (nM)' [panel C]
Description: as §1

[10] = biological target: T2, bovine type I collagen; assay: ELISA on coated bovine type I collagen (10 µg/mL), FabCol titrated 0.01-30 nM, HRP-anti-human Fab; table headed 'Estimated KD (nM)' [panel C]
Description: as §1

[11] = biological target: T8, recombinant human vWF A2 domain (human, UniProt P04275 1498-1665); assay: ELISA, domain coated 50 nM
T8 construct: domain: A2
Description: (§2) ELISA was performed as previously reported1. […] After blocking with 2% BSA solution containing PBS-T, 1 μg/mL of recombinant human VEGF-A121 (PeproTech), recombinant human VEGF-A145 (R & D Systems), or recombinant human VEGF-A165 (PeproTech) was added. Bound VEGF-A was detected with 1 μg/mL of mouse anti-human VEGF-A antibody (clone: 26503, R & D systems). After 60 min of incubation, horseradish peroxidase (HRP) conjugated goat anti-mouse antibody (1:2000 dilution, Dako) was added and incubated for another 60 min. Color development and the absorbance measurement were done as described above.

[12] = biological target: T9, recombinant human vWF A3 domain (human, UniProt P04275 1683-1874); assay: ELISA, domain coated 50 nM
T9 construct: domain: A3
Description: as §2

[13] = biological target: T10, human plasma-derived vWF (human, UniProt P04275 764-2813); assay: ELISA, vWF coated 50 nM, VEGF-A 1 µg/mL
T10 construct: mature; also called plasma-derived purified vWF; von Willebrand factor
Description: as §2

[14] = biological target: T11, recombinant human vWF A1 domain (human, UniProt P04275 1261-1468, limits assumed); assay: ELISA, domain coated 50 nM, VEGF-A 1 µg/mL
T11 construct: domain: A1; also called vWF A1 recombinant protein; recombinant A1 domain
Description: as §2

[15] = biological target: T12, vascular endothelial growth factor (VEGF)-A121 (human, UniProt P15692-9 27-147); assay: ELISA, HBD peptide coated
T12 construct: mature; Purchased in mature form, not glycosylated
T12 sequence (looked up): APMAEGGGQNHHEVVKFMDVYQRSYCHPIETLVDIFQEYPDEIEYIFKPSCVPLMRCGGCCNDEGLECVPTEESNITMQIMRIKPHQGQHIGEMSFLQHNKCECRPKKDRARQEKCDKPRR
Description: (§3) ELISA tests were performed as described above. […] After blocking with 2% BSA solution containing PBS-T, 1 μg/mL of the recombinant human proteins VEGF-A121, VEGF-A165, PlGF-1, PlGF-2, PDGF-BB, FGF-2, CXCL-12α and CXCL-12γ were added. 1 μg/mL of BSA served as non-binding protein control. Bound GF or chemokine was detected with biotinylated antibodies for human VEGF-A, PlGF, PDGF-BB, FGF-2, or CXCL-12 (R & D Systems). The antibodies were detected by streptavidin-HRP (R & D Systems). Color development and the absorbance measurement were done as described above.

[16] = biological target: T5, placental growth factor (PlGF)-1; assay: ELISA, HBD peptide coated
Description: as §3

[17] = biological target: T12, vascular endothelial growth factor …; assay: ELISA, peptide coated
Outline: (§4)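 Wells coated with 10 μg/mL laminin α3/α4/α5 LG-domain peptides, BSA-coated wells as non-binding control, blocked with 2% BSA PBS-T. Recombinant human GFs added at 1 μg/mL; bound GF detected with GF-specific biotinylated antibody plus streptavidin-HRP (n=4, mean±SEM).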

[18] = biological target: T5, placental growth factor (PlGF)-1; assay: ELISA, peptide coated
Outline: as §4

[19] = biological target: T4, placental growth factor (PlGF)-2; assay: ELISA, peptide coated, GF 1 µg/mL
Outline: as §4

[20] = biological target: T6, platelet-derived growth factor (PDGF)-BB; assay: ELISA, peptide coated, GF 1 µg/mL
Outline: as §4

[21] = biological target: T13, fibroblast growth factor (FGF)-2 (human, UniProt P09038 143-288); assay: ELISA, peptide coated, GF 1 µg/mL
T13 construct: mature; Purchased in mature form
T13 sequence (P09038 143-288): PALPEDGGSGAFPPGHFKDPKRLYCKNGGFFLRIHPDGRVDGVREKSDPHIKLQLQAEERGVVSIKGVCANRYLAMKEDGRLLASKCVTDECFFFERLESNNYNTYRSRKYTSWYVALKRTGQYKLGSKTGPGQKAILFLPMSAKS
Outline: as §4

[22] = biological target: T7, vascular endothelial growth factor …; assay: ELISA, peptide coated, GF 1 µg/mL
Outline: as §4

[23] = biological target: T14, recombinant human syndecan-1 (human, UniProt P18827 23-254, limits assumed); assay: ELISA, peptide coated, anti-His detection
T14 construct: Histidine tag of unstated position and length
T14 sequence (looked up): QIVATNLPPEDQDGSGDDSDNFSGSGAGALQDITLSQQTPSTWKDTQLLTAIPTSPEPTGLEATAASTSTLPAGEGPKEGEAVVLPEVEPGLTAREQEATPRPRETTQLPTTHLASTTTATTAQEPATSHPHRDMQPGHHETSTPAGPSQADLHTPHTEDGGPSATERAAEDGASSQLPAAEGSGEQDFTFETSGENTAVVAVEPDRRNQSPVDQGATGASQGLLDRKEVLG
Description: (§5) ELISA tests were performed as described above. In brief, ELISA plates were coated with 1 μg/mL laminin peptide (sequences are described in Table 1, chemically synthesized by Genscript) in PBS for 2 hrs at 37° C. 1 μg/mL of BSA served as non-binding protein control. After blocking with 2% BSA PBS-T solution, 1 μg/mL of the recombinant human syndecan-1, syndecan-2, syndecan-3, syndecan-4 (all syndecan proteins are histidine-tagged; SinoBiological) were added. Bound GF was detected with anti-histidine tag antibody (1:1000 dilution, BioLegend).

[24] = biological target: T15, recombinant human syndecan-2 (human, UniProt P34741 19-144, limits assumed); assay: ELISA, peptide coated, anti-His detection
T15 construct: Histidine tag of unstated position and length
T15 sequence (P34741 19-144 limits assumed): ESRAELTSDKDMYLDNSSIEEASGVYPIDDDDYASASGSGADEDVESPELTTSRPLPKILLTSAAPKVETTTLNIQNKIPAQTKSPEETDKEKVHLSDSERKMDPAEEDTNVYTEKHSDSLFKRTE
Description: as §5

[25] = biological target: T16, recombinant human syndecan-3 (human, UniProt O75056 48-387, limits assumed); assay: ELISA, peptide coated, anti-His detection
T16 construct: Histidine tag of unstated position and length
T16 sequence (O75056 48-387 limits assumed): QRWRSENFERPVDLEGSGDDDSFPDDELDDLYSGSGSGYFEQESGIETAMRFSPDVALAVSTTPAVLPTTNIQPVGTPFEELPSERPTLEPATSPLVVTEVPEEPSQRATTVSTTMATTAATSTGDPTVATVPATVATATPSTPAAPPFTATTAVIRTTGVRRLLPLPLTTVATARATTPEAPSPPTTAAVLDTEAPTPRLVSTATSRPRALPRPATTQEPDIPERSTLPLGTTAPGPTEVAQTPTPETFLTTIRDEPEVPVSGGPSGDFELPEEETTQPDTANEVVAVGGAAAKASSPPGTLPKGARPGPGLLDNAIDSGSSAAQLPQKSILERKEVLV
Description: as §5

[26] = biological target: T17, recombinant human syndecan-4 (human, UniProt P31431 19-145, limits assumed); assay: ELISA, peptide coated, anti-His detection
T17 construct: Histidine tag of unstated position and length
T17 sequence (looked up): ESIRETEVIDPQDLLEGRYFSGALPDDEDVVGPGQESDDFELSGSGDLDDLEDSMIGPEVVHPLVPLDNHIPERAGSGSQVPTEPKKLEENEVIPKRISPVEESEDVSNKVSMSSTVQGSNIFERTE
Description: as §5

T1 sequence (P12643 283-396 limits assumed): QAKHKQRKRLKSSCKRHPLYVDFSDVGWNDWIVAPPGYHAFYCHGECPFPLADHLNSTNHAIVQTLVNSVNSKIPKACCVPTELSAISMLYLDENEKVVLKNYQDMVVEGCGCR

B1: FabCol (Fab)
light: EIVLTQSPGTLSLSPGERATLSCRASQSVSSSYLAWYQQKPGQAPRLLIYGASSRATGIPDRFSGSGSGTDFTLTISRLEPEDFAVYYCQQAIGFPQTFGQGTKVEIKRTVAAPSVFIFPPSDEQLKSGTASVVCLLNNFYPREAKVQWKVDNALQSGNSQESVTEQDSKDSTYSLSSTLTLSKADYEKHKVYACEVTHQGLSSPVTKSFNRGEC
heavy: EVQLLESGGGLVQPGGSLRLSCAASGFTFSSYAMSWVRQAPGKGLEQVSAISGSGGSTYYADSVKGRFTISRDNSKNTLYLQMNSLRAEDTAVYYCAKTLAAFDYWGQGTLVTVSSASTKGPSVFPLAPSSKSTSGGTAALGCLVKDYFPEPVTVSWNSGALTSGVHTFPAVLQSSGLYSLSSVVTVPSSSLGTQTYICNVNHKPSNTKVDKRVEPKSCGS
notes: Human Fab with human Fab constant regions; also called non-conjugated FabCol; anti-collagen I Fab (clone C11)
[1]
  binding result: no binding (tested: 50 nM)
[2]
  EC50 (read off the curve): ~0.2 nM
[3]
  EC50 (read off the curve): ~1 nM
[4]
  binding result: no binding (tested: 100 nM (single concentration))
[5]
  binding result: no binding (tested: 100 nM (single concentration))
[6]
  binding result: no binding (tested: 100 nM (single concentration))
[7]
  binding result: no binding (tested: 100 nM (single concentration))
[8]
  binding result: no binding (tested: 100 nM (single concentration))
[9]
  Kd: 0.3 nM
[10]
  Kd: 0.9 nM

B2: recombinant human VEGF-A145 (ligand, UniProt P15692-6 27-171, looked up)
chain: APMAEGGGQNHHEVVKFMDVYQRSYCHPIETLVDIFQEYPDEIEYIFKPSCVPLMRCGGCCNDEGLECVPTEESNITMQIMRIKPHQGQHIGEMSFLQHNKCECRPKKDRARQEKKSVRGKGKGQKRKRKKSRYKSWSVCDKPRR
[11]
  binding result: no binding (tested: 1 µg/mL)
[12]
  binding result: no binding (tested: 1 µg/mL)
[13]
  binding result: binds
[14]
  binding result: binds

B3: vWF A1 HBD peptide (23 residues) (peptide)
peptide: YIGLKDRKRPSELRRIASQVKYA
notes: Chemically synthesized (Genscript); also called vWF HBD; vWF A1 peptide
[15]
  binding result: no binding (tested: 1 µg/mL)
[16]
  binding result: no binding (tested: 1 µg/mL)

## TLPDVGLELEVR (Chemically synthesized (Genscript)) [laminin α5 3539-3550 peptide (LG5)]
[17]
  binding result: no binding (tested: 1 µg/mL)
[18]
  binding result: no binding (tested: 1 µg/mL)
[19]
  binding result: binds
[20]
  binding result: binds
[21]
  binding result: binds
[22]
  binding result: binds
[23]
  binding result: no binding (tested: 1 µg/mL)
[24]
  binding result: no binding (tested: 1 µg/mL)
[25]
  binding result: no binding (tested: 1 µg/mL)
[26]
  binding result: no binding (tested: 1 µg/mL)
